Measurements taken from PMC9712074 (Cell Reports, 2022).

B1: BD55-5200 (antibody, V domains shown)
VH: QVQLQESDPGLVKPSQTLSLTCTVSGGSISGGSNFWNWIRQPAGKGLEWIGRIYTSGNTDYNPSLKSRVTISVDTSKNQFSLRLSSVTAADTAVYYCARDRLSGKVEVAINHFSYGLDVWGPGTTVTVSS
VL: SHELTQPPSVSVSPGQTARITCSGDALPKQYAYWYQQKSGQAPVLVIYKDSERPSGIPERFSGSSSGRTVTLTISGVQAEDEADYYCQSADSSNIYLAFGGGTKVTVL
B2: BD55-5196 (antibody, V domains shown)
VH: QVHLVQSGAEVRKPGASVKVSCKASGYTFTSYFMYWVRQAPGHGLEWMGMIDPISGSTNYAQRFQGRVTMTRDTSTSTVNMELTSLRSEDTAVYYCARDGGIRFGDLSPDNWFDPWGRGTLVTVSS
VL: QSVLTQPPSVSGAPGQRVTISCTGSSSNLGAGYDVHWYQQLPGTAPKLLIYGNNNRPSGVPDRFSGSRSGTSASLAITGLLAEDEADYYCQSYDSSSLSGSKVFGTGTTVTVL
B3: BD55-5001 (antibody, V domains shown)
VH: QVQLVQSGSELKKPGASVKVSCKTSGYTFSTYAINWVRQAPGQGLEWMGWINTDTGIPTYAQGFTGRFVLSLDTSVGTAYLQISSLKAEDTAVYYCARADSGSYSWWFDPWGQGTLVTVSS
VL: VIWMTQSPSSLSASIGDRVTISCRLSYGISSELVWYKQKPGKAPELLIYAASILQSGVPSRFSGTGSGTDFTLTISGLQSEDFATYYCQQYYSFPLTFGQGTKVEIK
B4: BD55-4662 (antibody, V domains shown)
VH: QVQLQESGPGLVKPSETLSLTCTVSGASISSYYWTWIRQPPGKGLEWIGYIYNSGSTDYSPRGSTNYSPSLESRVTISVDTSKNQFSLKLSSVTAADTAVYHCARHPWTEMATYRSAYYFDSWGQGTLVTVSS
VL: QSALTQPASVSGSPGQSITISCTGTTSDVGAYNHVSWYQQHPGKAPNLMIYDVSERPSGVSDRFSASKSGNTASLTISGLQAEDEADYYCCSYAGRSTWMFGGGTKLTVL
B5: BD55-4760 (antibody, V domains shown)
VH: EVQLVEAGGDLVQPGRSLRLSCAASGFNFDDCAMHWVRQAPGKGLEWVSGINWSSGDIDYADSVKGRFTISRDNAKNSLYLQMNSLRPEDTAFYYCAKDPWGELSSIDFWGQGTLVTVSS
VL: QLVLTQSPSASASLGASVKLTCTLSRGHSSYAIAWHQQQPEKGPRYLMRVNSDGSHIKGDGIPDRFSGSSSGAERYLTISSLQSEDEADYYCQTWSIGIRVFGGGTKLTVL
B6: BD55-5168 (antibody, V domains shown)
VH: QVQLVQSGSEVKKPGSSVKVSCKASGGSFRSHAISWVRQAPGQGLEWMGCVIPTFDTANYAQNFRGRVTLTADESTSTAYMELTSLTSDDTAVYYCARLFPNGTPDSPTGPLDYWGQGTLVTVSS
VL: DIQMTQSPSSLSASVGDRVTITCQASQGIGNYLNWYQQKPGKAPKLLIYGASNLHTGVPSRFSGRGSGTHFTFTINSLQPEDVATYYCQQYDYVPMYTFGQGTKLEIK
B7: BD55-5201 (antibody, V domains shown)
VH: QVQVVQSGAEVKKPGSSVKVSCEASGGTFSSDTIHWVRQAPGQGLEWMGRIIPIPGIVNYAQKFQGRVTITADKSTSIAYMELSSLRSEDTAVYYCASAPPRGYSGYDLLGNDPLDIWGQGTMVTVSS
VL: QSVLTQPPSVSGAPGQRVTISCTGSSSNIGAGYDVHWYQQLPGTAPKFFISVNNNRPSGVPDRFSGSKSGTSASLAITGLQAEDEAVYYCQSFDSSLSGSYVFGTGTKVTVL
B8: BD55-5164 (antibody, V domains shown)
VH: QLQLQESGPGLVKPSETLSLTCIVSRGSISSSSYFWAWVRQAPGKGLEWIGTIDYTGNTHYNTSLKSRVTISVDTSKNQFSLRLRSVTAADTALYFCSRQSAPPWGSSWGDYWGRGTLVTVSS
VL: DIQMTQSPSSLSASVGDRVTISCQASQDISNYLNWYHQTPGKAPILLIFDASNLEAGVPSRFSGSGSGRHFSFTISSLQPEDTGTYYCQQYANLPALTFGGGTKVDIK
B9: BD55-5198 (antibody, V domains shown)
VH: EVQLVESGGGVVKPGGSLRLSCAASGFTFSAFAMHWVRQVPGKGLEYISLISEDGYSTFYAASVTGRFTLSRDNNKKSLYLQMNSLRSEDTAFYYCAKDIGGTVAGTGADFWGQGILVTVSS
VL: QSVLTQPPSVSGAPGQKVTISCTGDSSNIGAGYTVHWYQQLPGTAPKLLIYGDNNRPSGVPDRFSGSKSGTSASLAITGLQAEDEADYYCQSYDTSLSGLWVFGGGTRLTVL
B10: BD55-5167 (antibody, V domains shown)
VH: QITLKESGPTLVKPTQTLTLTCTFSGFSLTTTGMGVGWIRQPPGKAPEWLALIYWLDDTRYSPSLESRLTLTKDTSKNLVVLTMTNMDPVDTATYYCAHLYYDSSSGYDTTGPDAFDFWGQGTMVTVSP
VL: AIQITQSPSSLSASPGDRVTITCRASQGISSFLAWYQQRRGRAPKLLIHSASTLQNGVPSRISGSGSGTDFTLTITGLQSEDFATYYCQQYYSYPPTFGHGTKVEF
B11: BD55-5195 (antibody, V domains shown)
VH: QLQLQESGPRLVKPSETLSLTCSVSGGSIRSNSDYWAWIRQSPGQGLEWIGSISHSGSTYYNPSLKSRVSIFVDTSSNQFSLNLTSVTAADTAVYHCARHPSSGWLILWFDPWGQGTLVTVSS
VL: EIVLTQSPGTLSLSPGERATLSCRASQSISSNFLAWYQQKPGQAPRLLIYGASNRATDIPDRFSGSGSGTDFTLTVRRLEPEDFAVYYCHQYDTSPQTFGQGTKVEIK
B12: BD55-5175 (antibody, V domains shown)
VH: QVQLVQSGPELKRPGASVKVSCETSGYTFTDYAINWVRQAPGQGLEWMGWINTNTGHPTYAQGFTGRFVFSVDMSDSTAYLQISSLKPADTAVYYCARDFQVPEGLDYWGQGTLVTVSS
VL: DIVMTQSPATLSLSPGETATLSCRASYSFTSRLAWYQQKPGQAPRLLIHDASNRAPGVPARFSGSGSGTEFTLAISGLQSEDSAVYYCQQYHSWPLTFGQGTKVEIK
B13: BD55-5171 (antibody, V domains shown)
VH: QVQLVQSGSGLKKPGASVKVSCRTSGYSFTDHTINWVRQAPGQGLEWMGWINTATGIPTYAQGFTGRFVFSLDTSVGTAFLLISSLQAADTAVYYCARAASWDYCGNNNCFGDYWGQGTLVTVSS
VL: ENVLTQSPGTLSLSVGERVTLSCRASHSVGSSFLAWYQQKPGQAPRLLIYGASNRATGIPDRISGRGSGTDFSLTISRLEPEDFAVYYCHQYGSSPFTFGQGTKVEIK
B14: BD55-4495 (antibody, V domains shown)
VH: QGHLVQSGAEVKEPGASVTLSCKASGYTFTNHFMHWVRQAPGQGLEWMARINPSGDSTNLAQKFQGRVSVTRDSSTSTVYMYLSRLRVEDTAVYYCARDRFPSPGNFVWGSPLGGMDVWGQGTTVTVSS
VL: SYDLAQPPSVSVSPGQTATITCSGAALPNQYAYWYQQKSGQAPVLLLYKDSERPSGIPERFSGSNSGTTVTLTISGVQAEDEAVYYCQSADSSTSYHVFGAGTKVTVL
B15: BD55-5189 (antibody, V domains shown)
VH: QVQLVQSGAEVKKPGASVKVSCKASGYSFTTFYIHWLRQAPGQGLEWMGIVNVAGDTTDYAQNFQGRVTMTRDTSTGTVYMELSSLRSEDTAIYYCASPREKGYSGYDFWETTFDIWGQGTMVTVS
VL: EVVMTQSPATLSVSPGERATLSCRASQSISSNLAWYQQKPGQAPRLLIYGASTRATGIPARFSGSGSGSQFTLTISSLQSEDFVVYYCQQYNNWPPIFGQGTKLEIK
B16: BD55-4664 (antibody, V domains shown)
VH: QVQLQQWGAGLLRPSETLSLTCAVSGGSFSGYYWSWIRQPPGKGLEWIGEINHTGGTNYNPSLKSRVTVSIDMSRNQFSVKLNSLTAADTAVYFCAREAPDYFDSSGYRFDYWGQGALVTISS
VL: QSALTQPASVSGSPGQSITISCTGTSNDVGGYNYVSWYQQHPGKAPKLIIYDVTSRPSGISNRFSGSKSGNTASLTISGLQAEDEADYYCCSYTRSFTRVFGGGTKLTVL
B17: BD55-4892 (antibody, V domains shown)
VH: QVQLVESGGGVVQPGGSLRLSCAASGFTFSTYGMHWVRQAPGKGLEWVAVISYDGNNKYHADSVKGRFTISRDNSKNTLYLEMKSLRAEDTAVYYCAKEVNYGSGSFENEGRLDYWGQGTLVTVSS
VL: DIQMTQSPSSLSASVGDRVTITCRTSQSINRYLNWYQQKPGKAPKLLIYATSTLQSGVPSRFSGSGSGTDFILTISNLQPEDFAAYYCQQTYSIPWTFGQGTKVEIK
B18: BD55-5183 (antibody, V domains shown)
VH: QVQLVQSGGEVKKPGSSVKVSCRASGGTFSGYTISWVRRAPGQGLEWMGGIIPMYGAANYAQKFQGRVTISAETSTGTAYMELSGLTSDDTAMYYCARDLGGEDITVAGKAPDYWGQGTLVTVSS
VL: DIQMTQSPSSLSASVGDRVTVTCRASQSISKYLNWYQERPGKAPKLLIYTASSLPSEVPSRFSGSGFGTDFTLTISGLQPEDFATYYCQQSYSLPYTFGQGTKLEIK
B19: BD55-5163 (antibody, V domains shown)
VH: QVQLVQSGAEVKKPGASLKVSCKASGYTFTYFGVSWVRQAPGQGLEWVGWISTYHGDTNYAQKLQGRVTLTTDTSTSTVYMELRNLRSDDTAIYYCAREGGSGWGDFWGQGTLVTVSS
VL: EIVLTQSPATLSLSPGERATLSCRANQSISNYLAWYQQRPGQAPRLLIFDASNRATGIPARFTGSGSETDFTLTISSLEPEDFAVYYCQQRSNWPPAFGQGTRLDIK
B20: BD55-5182 (antibody, V domains shown)
VH: EVQLVESGGGLVKPGGSLRLSCAASGFTLSNAWMTWVRQAPGKGLEWIARIKGKVDGATRDYAAPVKGRFTISTDDSKTTLFLQMNTLKTEDTAVYFCTALFTSYDMLTGRAGGRGYWGQGTLVTVSS
VL: NVMLTQPHSVSESPGKTVTISCTRSSGSIASNYVQWYQQRPGSAPTTVIYEDNQRPSGVPDRFSGSIDSSSNSASLTISGLETEDEADYYCQSFDSSNHMNWVFGGGTKLTVL
B21: BD55-5170 (antibody, V domains shown)
VH: QVQLVESGGGVVQPGRSLRLSCVASGFTFNTYGMHWVRQVPGKGLEWVAVISYDGSNQIYGDSVKGRFTISRDNSKNTVYLQMNGLRAEDTAVYYCATPLHDYSGYDLFDYGYAMDVWGQGTTVTVSS
VL: QSVLTQPPSASGTPGQRVTVSCSGSSSNIGSDYVYWYQQFPGTAPKLLIYRNSQRPSGVPDRFSGSKSGTSASLAISGLRSEDEADYYCAAWDGSISAWVFGGGTKLTVL

Target: SARS-CoV-2 (WT) Spike RBD Protein (His Tag) (SARS-CoV-2 ancestral (Wuhan-Hu-1), UniProt P0DTC2)

| Binder | binding result |
| --- | --- |
| B1 | binds |
| B2 | binds |
| B3 | binds |
| B4 | binds |
| B5 | binds |
| B6 | binds |
| B7 | binds |
| B8 | binds |
| B9 | binds |
| B10 | binds |
| B11 | binds |
| B12 | binds |
| B13 | binds |
| B14 | binds |
| B15 | binds |
| B16 | binds |
| B17 | binds |
| B18 | binds |
| B19 | binds |
| B20 | binds |
| B21 | binds |
